Experimental data from patent KR20200098338A (dated 2020).
Numbering of substitutions follows the chain as printed.

B1: 3F12 항체 (항-BAG2 단일클론성 항체) (antibody, V domains shown)
VH: QVQLQESGPDLVKPSQSLSLTCTVTGYSITSGYSWHWIRQFPGNKLEWMGYIYYRGSTNYNPSLKSRISITRDTSKNQFFLLLKSVTTEDTATYYCAREAYWGQGTLVTVSA
VL: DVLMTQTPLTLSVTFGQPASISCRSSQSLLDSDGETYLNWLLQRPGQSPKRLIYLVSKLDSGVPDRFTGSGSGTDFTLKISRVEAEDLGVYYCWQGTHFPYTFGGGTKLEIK
notes: Mouse hybridoma monoclonal antibody
B2: 2A11 항체 (항-BAG2 단일클론성 항체) (antibody, V domains shown)
VH: QVQLQQPGAELVRPGASVTLSCKASGYTFTDYEMHWVKQTPVHGLEWIGIIDPETGGTAYNQKFKGKATLTADKSSSTAYMELRSLTSEDSAVYYCTRGKFYYSGRDYAMDYWGQGTSVTVSS
VL: DVLMTQTPLSLPVSLGDQASISCRSSQSIVHSNGNTYLEWYLQKPGQSPKLLIYKVSNRFSGVPDRFSGSGSGTDFTLKISRVEAEDLGVYFCFQGSQVPPTFGGGTKLEIK
notes: as for B1
B3: 3G8 항체 (항-BAG2 단일클론성 항체) (antibody, V domains shown)
VH: QIQLVQSGPELKKPGETVKISCKASGYSFTKYGMNWVKQAPGKDIKWMGWINTNTGEATYGEEVKGRFAFSLETSASTAYLQINNLKNEDTATYFCARLGLRYLDYWGQGTTLTVSS
VL: DIVMTQSPASLVVSLGQRATISCRASKSVSTSDYSYMHWYQQKPGQPPKVLIYLASNLESGVPARFSGSGSGTDFTLNIHPVEEEDAATYYCQHNRELPPTFGAGTKLELK
notes: as for B1
B4: 8C4 항체 (항-BAG2 단일클론성 항체) (antibody, V domains shown)
VH: B2 VH with G56A
VL: B2 VL with I53F
notes: as for B1
B5: 4C2 항체 (항-BAG2 단일클론성 항체) (antibody, V domains shown)
VH: B2 VH with G57A
VL: B2 VL with I53F
notes: as for B1

biological target: T1, 인간 BAG2 단백질 (human BAG2 protein) (human, UniProt O95816 2-211); assay: immunoblot selection of hybridoma clones
T1 construct: also called BAG2 폴리펩티드
T1 sequence (O95816 2-211 limits assumed): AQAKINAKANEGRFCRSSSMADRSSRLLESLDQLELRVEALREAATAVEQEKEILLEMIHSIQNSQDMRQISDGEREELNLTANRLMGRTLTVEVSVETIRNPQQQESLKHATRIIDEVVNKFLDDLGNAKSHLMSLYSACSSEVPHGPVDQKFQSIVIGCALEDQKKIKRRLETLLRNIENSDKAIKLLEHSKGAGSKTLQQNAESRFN

Question: Does B1 bind?
Answer: binds

Question: Does B2 bind?
Answer: binds

biological target: T1, 인간 BAG2 단백질 (human BAG2 protein); assay: immunoblot of MDA-MB-231 cell lysate, antibody from hybridoma culture at 1/2000

Question: Does B3 bind?
Answer: binds

Question: Does B4 bind?
Answer: binds

Question: Does B5 bind?
Answer: binds

biological target: T2, GST-Bag Full (GST-융합 전장 BAG2 폴리펩티드) (human, UniProt O95816 1-211); assay: immunoblot of lysate of HEK293T cells transfected with GST-Bag Full vector, signal at about 50 kDa
T2 construct: Expressed in HEK293T cells, detected at about 50 kDa in lysate by immunoblot; also called GST-Bag Full 벡터 발현 산물; not shown: GST tag, about 26 kDa, from pcDNA3.1+/GST vector (NovoPro Bioscience)
T2 sequence (O95816 whole entry): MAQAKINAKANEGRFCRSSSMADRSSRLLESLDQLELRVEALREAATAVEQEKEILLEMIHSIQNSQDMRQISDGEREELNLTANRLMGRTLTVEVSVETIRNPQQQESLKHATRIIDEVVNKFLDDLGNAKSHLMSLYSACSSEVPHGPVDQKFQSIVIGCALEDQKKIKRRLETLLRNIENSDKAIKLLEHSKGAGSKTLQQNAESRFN

Question: Does B3 bind?
Answer: binds

Question: Does B1 bind?
Answer: binds

Question: Does B2 bind?
Answer: binds

Question: Does B4 bind?
Answer: binds

Question: Does B5 bind?
Answer: binds
